Assay results taken from paper PMC4063175.

Molecular target: Src13-GCN4-eGFP/mCherry
Assay: PIE-FCCS

Src13-GCN4-eGFP/mCherry
fc (fraction correlated), mean: 0.25 | fc (fraction correlated), median: 0.23
